Data published in US20170002055A1, “Novel peptides and combination of peptides for use in immunotherapy against ovarian cancer and other cancers” (immatics biotechnologies GmbH, priority 2015, published 2017).

Assays:
HLA-A*02:01 = HLA-A*02:01 (Homo sapiens, UniProt P04439, D140Y/D185E/D98H/E176V/E277Q/G131W/G231S/I119V/I121R/I166T/I218V/L300P/L318F/N151K/N90K/P208A/P217A/Q86G/Q94H/R138H/R169H/T345S); assay: MHC binding assay (UV-ligand exchange, β2m ELISA, peptide exchange yield); conditions: MHC class I binding score; binding to HLA-A*02:01 ranged by peptide exchange yield (UV-ligand exchange, β2m ELISA)
Summary of the method: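 Peptide–HLA-A*02:01 complexes were formed by UV-mediated exchange of a UV-cleavable ligand for the test peptide. Exchange yield was measured by capturing complexes on streptavidin, detecting with HRP anti-β2m antibody (1 h, 37°C) and reading TMB absorbance at 450 nm.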

CD8+ T cells = assay: In vitro immunogenicity: priming of CD8+ T cells with artificial APCs loaded with peptide/MHC and anti-CD28, multimer readout; type: cell-based, human; conditions: HLA-A*02 restricted peptides, percentage of positive wells
Excerpt: In order to obtain information regarding the immunogenicity of the TUMAPs of the present invention, the inventors performed investigations using an in vitro T-cell priming assay based on repeated stimulations of CD8+ T cells with artificial antigen presenting cells (aAPCs) loaded with peptide/MHC complexes and anti-CD28 antibody.
In order to perform in vitro stimulations by artificial antigen presenting cells loaded with peptide-MHC complex (pMHC) and anti-CD28 antibody, the inventors first isolated CD8+ T cells from fresh HLA-A*02 leukapheresis products via positive selection using CD8 microbeads (Miltenyi Biotec, Bergisch-Gladbach, Germany) of healthy donors obtained from the University clinics Mannheim, Germany, after informed consent.
PBMCs and isolated CD8+ lymphocytes were incubated in T-cell medium (TCM) until use consisting of RPMI-Glutamax (Invitrogen, Karlsruhe, Germany) supplemented with 10% heat inactivated human AB serum (PAN-Biotech, Aidenbach, Germany), 100 U/ml Penicillin/100 μg/ml Streptomycin (Cambrex, Cologne, Germany), 1 mM sodium pyruvate (CC Pro, Oberdorla, Germany), 20 μg/ml Gentamycin (Cambrex). 2.5 ng/ml IL-7 (PromoCell, Heidelberg, Germany) and 10 U/ml IL-2 (Novartis Pharma, Nürnberg, Germany) were also added to the TCM at this step.
Generation of pMHC/anti-CD28 coated beads, T-cell stimulations and readout was performed in a highly defined in vitro system using four different pMHC molecules per stimulation condition and 8 different pMHC molecules per readout condition.
The purified co-stimulatory mouse IgG2a anti human CD28 Ab 9.3 (Jung et al., 1987) was chemically biotinylated using Sulfo-N-hydroxysuccinimidobiotin as recommended by the manufacturer (Perbio, Bonn, Germany). Beads used were 5.6 μm diameter streptavidin coated polystyrene particles (Bangs Laboratories, Illinois, USA).
pMHC used for positive and negative control stimulations were A*0201/MLA-001 (peptide […] (SEQ ID NO. 664) from modified Melan-A/MART-1) and A*0201/DDX5-001 ([…] from DDX5, SEQ ID NO. 665), respectively.
800.000 beads/200 μl were coated in 96-well plates in the presence of 4×12.5 ng different biotin-pMHC, washed and 600 ng biotin anti-CD28 were added subsequently in a volume of 200 μl. Stimulations were initiated in 96-well plates by co-incubating […] CD8+ T cells with 2×10^5 washed coated beads in 200 μl TCM supplemented with 5 ng/ml IL-12 (PromoCell) for 3 days at 37° C. Half of the medium was then exchanged by fresh TCM supplemented with 80 U/ml IL-2 and incubating was continued for 4 days at 37° C. This stimulation cycle was performed for a total of three times. For the pMHC multimer readout using 8 different pMHC molecules per condition, a two-dimensional combinatorial coding approach was used as previously described (Andersen et al., 2012) with minor modifications encompassing coupling to 5 different fluorochromes. Finally, multimeric analyses were performed by staining the cells with Live/dead near IR dye (Invitrogen, Karlsruhe, Germany), CD8-FITC antibody clone SK1 (BD, Heidelberg, Germany) and fluorescent pMHC multimers. For analysis, a BD LSRII SORP cytometer equipped with appropriate lasers and filters was used. Peptide specific cells were calculated as percentage of total CD8+ cells. Evaluation of multimeric analysis was done using the FlowJo software (Tree Star, Oregon, USA). In vitro priming of specific multimer+ CD8+ lymphocytes was detected by comparing to negative control stimulations.

| Substance | Peptide exchange (HLA-A*02:01) | Wells positive [%] (CD8+ T cells) |
| --- | --- | --- |
| 38 (FLLEDDIHVS; listed as Homo sapiens) [compound 38] | “+++” (≧50 = +++) | “+” (<20% = +) |
| 150 (RLWEEGEELEL; listed as Homo sapiens) [compound 150] | “+++” (≧50 = +++) | “+” (<20% = +) |
| 157 (SLNDEVPEV; listed as Homo sapiens) [compound 157] | “++” (≧20% = ++) | “+++” (50%-69% = +++) |
| 17 (GLLPGDRLVSV; listed as Homo sapiens) [compound 17] | “+++” (≧50 = +++) | “++” (20%-49% = ++) |

More lines, main results first:

| Peptide exchange (HLA-A*02:01) | Substance | Wells positive [%] (CD8+ T cells) |
| --- | --- | --- |
| “+++” (≧50 = +++) | 443 (GLWEIENNPTV; listed as Homo sapiens) [compound 443] | “+” (<20% = +) |
| “+++” (≧50 = +++) | 518 (KLNAEVACV; listed as Homo sapiens) [compound 518] | “++” (20%-49% = ++) |
| “+++” (≧50 = +++) | 166 (YLNHLEPPV; listed as Homo sapiens) [compound 166] | “++++” (> = 70% = ++++) |
| “+++” (≧50 = +++) | 454 (KLPPPPPQA; listed as Homo sapiens) [compound 454] | “++” (20%-49% = ++) |
